9 molecules from patent US20070207507A1 can be followed below.

In one assay the target is TAG-72. Kind of assay: 99mTc-labeled phage on LS-174T colon cancer cells expressing TAG-72.
Assay [1] addresses myeloperoxidase. Kind of assay: 99mTc-phage incubated with 125I-myeloperoxidase, separated on a spin column / Sepharose 6B column.
In assay [2] the target is myeloperoxidase. Kind of assay: SE-HPLC on a Superose-12 column, 5 min incubation.
For assay [3], the target named is myeloperoxidase. Kind of assay: SPR (Biacore 1000), biotinylated myeloperoxidase on a streptavidin chip, peptide at 1 uM, fitted curve. On the technique in general: In SPR one partner is held on a chip, and binding of the other changes the refractive index at the surface.
The target in assay [4] is myeloperoxidase. Kind of assay: SE-HPLC on a Superose-12 column, 2 hours incubation.

Bridges are numbered along the chain shown (N, C = ends). Where no end group is shown, it is not given here.

Sequence of myeloperoxidase (P05164 165-745): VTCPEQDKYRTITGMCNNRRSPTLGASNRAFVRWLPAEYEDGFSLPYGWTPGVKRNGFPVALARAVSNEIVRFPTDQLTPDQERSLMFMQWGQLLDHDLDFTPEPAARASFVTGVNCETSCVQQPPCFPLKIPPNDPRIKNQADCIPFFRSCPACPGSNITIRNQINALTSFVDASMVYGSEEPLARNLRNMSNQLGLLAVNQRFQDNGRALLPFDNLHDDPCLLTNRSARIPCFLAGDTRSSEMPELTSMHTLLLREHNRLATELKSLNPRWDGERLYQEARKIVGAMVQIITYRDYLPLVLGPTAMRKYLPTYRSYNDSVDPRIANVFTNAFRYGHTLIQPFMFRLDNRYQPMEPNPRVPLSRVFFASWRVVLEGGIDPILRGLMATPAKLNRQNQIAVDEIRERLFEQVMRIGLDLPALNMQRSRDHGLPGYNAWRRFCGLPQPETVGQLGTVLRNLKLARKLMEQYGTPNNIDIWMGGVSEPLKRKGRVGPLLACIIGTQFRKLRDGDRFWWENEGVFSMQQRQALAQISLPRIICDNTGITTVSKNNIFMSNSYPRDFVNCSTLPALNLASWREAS

B1: phage clone A3-10 (f88-4/Cys6 phage displaying a 16 mer cysteine-constrained peptide in pVIII) (peptide)
peptide: NPGTCKDKWIECLLNG
modifications: disulfide 5-12 (inferred); also: displayed on phage, cysteine-constrained, 99mTc-labelled in binding assays
On to B1, for which the Relative Binding (fold over control phage A3-12) in the assay with TAG-72 came out at 4.3 fold.

AMPVCSLDRKACTAYQ (disulfide 5-12; also: phage labelled with 99mTc via MAG3) [phage clone MPO-1 (f88-4/Cys6 phage displaying a 16 mer cysteine-constrained peptide in pVIII)]: the Relative Binding (% bound after subtraction of control phage MPO-4) with myeloperoxidase [1] worked out at 3.9%.

For TVMLCNPMEQGCRWMC (disulfide 5-12; also: phage labelled with 99mTc via MAG3) [phage clone MPO-15 (f88-4/Cys6 phage displaying a 16 mer cysteine-constrained peptide in pVIII)], the Relative Binding (% bound after subtraction of control phage MPO-4) with myeloperoxidase [1] was determined as 4.5%.

B2: control phage clone A3-12 (f88-4/Cys6 phage displaying a 16 mer cysteine-constrained peptide in pVIII) (peptide)
peptide: MNYYCHQTTKTCRTHS
modifications: disulfide 5-12 (inferred); also: displayed on phage, cysteine-constrained, 99mTc-labelled
With B2, the Relative Binding (the control phage, the reference itself) in the assay with TAG-72 was found to be 1 fold.

B3: phage clone A3-21 (f88-4/Cys6 phage displaying a 16 mer cysteine-constrained peptide in pVIII) (peptide)
peptide: LKNYCRKCSNRCTPTG
modifications: disulfide (positions not given here); also: displayed on phage, cysteine-constrained, 99mTc-labelled
B3 had a Relative Binding (fold over control phage A3-12) with TAG-72 of 1 fold.

Take HVLGCSYATNSCAHNA (disulfide 5-12; also: phage labelled with 99mTc via MAG3) [phage clone MPO-6 (f88-4/Cys6 phage displaying a 16 mer cysteine-constrained peptide in pVIII)]: the Relative Binding (% bound after subtraction of control phage MPO-4) in the assay with myeloperoxidase [1] worked out at 5.8%.

B4: phage clone A3-19 (f88-4/Cys6 phage displaying a 16 mer cysteine-constrained peptide in pVIII) (peptide)
peptide: NLIWCRKEFARCTSDM
modifications: disulfide 5-12 (inferred); also: displayed on phage, cysteine-constrained, 99mTc-labelled
Regarding B4, the Relative Binding (fold over control phage A3-12) with TAG-72 was 1.5 fold.

In turn, RSGQCHDDTWNCLACVGGSGGGC (also: cysteine-constrained, Cys pairing not given here) [MPO-17 twenty-three mer synthetic polypeptide] showed a UV peak for the enzyme, % of total protein at 5 min of incubation (% of total protein) with myeloperoxidase [2] of 16. In the assay with myeloperoxidase [3], the dissociation constant (Kd) (commonly a measure of binding affinity in units of concentration) was found to be 900 nM. Further, the UV peak for the enzyme, % of total protein after 2 hours incubation (% of total protein) with myeloperoxidase [4] turned out to be 46.

The molecule RSGQCHDDTWNCLACV (disulfide 5-12; also: phage labelled with 99mTc via MAG3) [phage clone MPO-17 (f88-4/Cys6 phage displaying a 16 mer cysteine-constrained peptide in pVIII)] had a Relative Binding (% bound after subtraction of control phage MPO-4) with myeloperoxidase [1] of 8%.
